# Data taken from patent US20140271457A1 (AbbVie / Abbott, published 2014).
# Numbering of substitutions follows the chain as printed.
# B1: AB441 (antibody, V domains shown)
# VH: EVQLVQSGAEVKKPGASVKVSCKASGYTFANYGIIWVRQAPGQGLEWMGWINTYTGKPTYAQKFQGRVTMTTDTSTSTAYMELSSLRSEDTAVYYCARKLFTTMDVTDNAMDYWGQGTTVTVSS
# VL: DIQMTQSPSSLSASVGDRVTITCRASQDISQYLNWYQQKPGKAPKLLIYYTSRLQSGVPSRFSGSGSGTDFTLTISSLQPEDFATYFCQQGNTWPPTFGQGTKLEIKR
# notes: parent antibody
# B2: DVD2818 (bispecific antibody, IgG1)
# VH: EVQLVESGGGLVQPGGSLRLSCAASGFSLTNNNVNWVRQAPGKGLEWVGGVWAGGATDYNSALKSRFTISRDNSKNTAYLQMNSLRAEDTAVYYCARDGGYSSSTLYAMDAWGQGTLVTVSSGGGGSGGGGSEVQLVQSGAEVKKPGASVKVSCKASGYTFANYGIIWVRQAPGQGLEWMGWINTYTGKPTYAQKFQGRVTMTTDTSTSTAYMELSSLRSEDTAVYYCARKLFTTMDVTDNAMDYWGQGTTVTVSS
# VL: DIQMTQSPSSLSASVGDRVTITCRASEDIYNALAWYQQKPGKAPKLLIYNTDTLHTGVPSRFSGSGSGTDYTLTISSLQPEDFATYFCQHYFHYPRTFGQGTKVEIKRGGSGGGGSGDIQMTQSPSSLSASVGDRVTITCRASQDISQYLNWYQQKPGKAPKLLIYYTSRLQSGVPSRFSGSGSGTDFTLTISSLQPEDFATYFCQQGNTWPPTFGQGTKLEIKR
# B3: DVD3106 (bispecific antibody, IgG1)
# VH: EVQLVQSGAEVKKPGASVKVSCKASGYTFANYGIIWVRQAPGQGLEWMGWINTYTGKPTYAQKFQGRVTMTTDTSTSTAYMELSSLRSEDTAVYYCARKLFTTMDVTDNAMDYWGQGTTVTVSSASTKGPEVQLVQSGAEVKKPGASVKVSCKASGYTFTTYGVSWVRQAPGQGLEWMGEIYPGNYNTYYNEKFRGRVTMTTDTSTSTAYMELRSLRSDDTAVYYCARWRTSYFSDYGYFDYWGQGTTVTVSS
# VL: DIQMTQSPSSLSASVGDRVTITCRASQDISQYLNWYQQKPGKAPKLLIYYTSRLQSGVPSRFSGSGSGTDFTLTISSLQPEDFATYFCQQGNTWPPTFGQGTKLEIKRTVAAPSVFIFPPDVVMTQSPLSLPVTLGQPASISCRSSQSLVHSHGNTYLHWYQQRPGQSPRLLIYTVSNRFSGVPDRFSGSGSGTDFTLKISRVEAEDVGVYYCSQSTHVPYTFGGGTKVEIKR
# notes: DVD-Ig; wt hIgG1 + kappa constants
# B4: DVD3038 (bispecific antibody, IgG1)
# VH: EVQLVQSGAEVKKPGASVKVSCKASGYTFNNYGIIWVRQAPGQGLEWMGWINTYTGKPTYAQKFQGRVTMTTDTSTSTAYMELSSLRSEDTAVYYCARKLFNTVAVTDNAMDYWGQGTTVTVSSGGGGSGGGGSEVQLVESGGGLVQPGGSLRLSCAASGFSLTNNNVNWVRQAPGKGLEWVGGVWAGGATDYNSALKSRFTISRDNSKNTAYLQMNSLRAEDTAVYYCARDGGYSSSTLYAMDAWGQGTLVTVSS
# VL: DIQMTQSPSSLSASVGDRVTITCRASQDIENYLNWYQQKPGKAPKLLIYYTSRLQSGVPSRFSGSGSGTDFTLTISSLQPEDFATYFCQQGNTQPPTFGQGTKLEIKRGGSGGGGSGDIQMTQSPSSLSASVGDRVTITCRASEDIYNALAWYQQKPGKAPKLLIYNTDTLHTGVPSRFSGSGSGTDYTLTISSLQPEDFATYFCQHYFHYPRTFGQGTKVEIKR
# B5: DVD2819 (bispecific antibody, IgG1)
# VH: EVQLVESGGGLVQPGGSLRLSCAASGFSLTNNNVNWVRQAPGKGLEWVGGVWAGGATDYNSALKSRFTISRDNSKNTAYLQMNSLRAEDTAVYYCARDGGYSSSTLYAMDAWGQGTLVTVSSASTKGPEVQLVQSGAEVKKPGASVKVSCKASGYTFANYGIIWVRQAPGQGLEWMGWINTYTGKPTYAQKFQGRVTMTTDTSTSTAYMELSSLRSEDTAVYYCARKLFTTMDVTDNAMDYWGQGTTVTVSS
# VL: DIQMTQSPSSLSASVGDRVTITCRASEDIYNALAWYQQKPGKAPKLLIYNTDTLHTGVPSRFSGSGSGTDYTLTISSLQPEDFATYFCQHYFHYPRTFGQGTKVEIKRTVAAPDIQMTQSPSSLSASVGDRVTITCRASQDISQYLNWYQQKPGKAPKLLIYYTSRLQSGVPSRFSGSGSGTDFTLTISSLQPEDFATYFCQQGNTWPPTFGQGTKLEIKR
# B6: DVD3046 (bispecific antibody, IgG1)
# VH: B5 VH with A158N, T230N, M232V, D233A
# VL: DIQMTQSPSSLSASVGDRVTITCRASEDIYNALAWYQQKPGKAPKLLIYNTDTLHTGVPSRFSGSGSGTDYTLTISSLQPEDFATYFCQHYFHYPRTFGQGTKVEIKRTVAAPSVFIFPPDIQMTQSPSSLSASVGDRVTITCRASQDIENYLNWYQQKPGKAPKLLIYYTSRLQSGVPSRFSGSGSGTDFTLTISSLQPEDFATYFCQQGNTQPPTFGQGTKLEIKR
# B7: DVD2822 (bispecific antibody, IgG1)
# VH: EVQLVESGGGLVQPGGSLRLSCAASGFSLTNNNVNWVRQAPGKGLEWVGGVWAGGATDYNSALKSRFTISRDNSKNTAYLQMNSLRAEDTAVYYCARDGGYSSSTLYAMDAWGQGTLVTVSSASTKGPSVFPLAPEVQLVQSGAEVKKPGASVKVSCKASGYTFANYGIIWVRQAPGQGLEWMGWINTYTGKPTYAQKFQGRVTMTTDTSTSTAYMELSSLRSEDTAVYYCARKLFTTMDVTDNAMDYWGQGTTVTVSS
# VL: B5 VL
# B8: DVD2821 (bispecific antibody, IgG1)
# VH: B5 VH
# VL: B6 VL with E150S, N151Q, Q214W
# B9: DVD3039 (bispecific antibody, IgG1)
# VH: EVQLVQSGAEVKKPGASVKVSCKASGYTFNNYGIIWVRQAPGQGLEWMGWINTYTGKPTYAQKFQGRVTMTTDTSTSTAYMELSSLRSEDTAVYYCARKLFNTVAVTDNAMDYWGQGTTVTVSSASTKGPEVQLVESGGGLVQPGGSLRLSCAASGFSLTNNNVNWVRQAPGKGLEWVGGVWAGGATDYNSALKSRFTISRDNSKNTAYLQMNSLRAEDTAVYYCARDGGYSSSTLYAMDAWGQGTLVTVSS
# VL: DIQMTQSPSSLSASVGDRVTITCRASQDIENYLNWYQQKPGKAPKLLIYYTSRLQSGVPSRFSGSGSGTDFTLTISSLQPEDFATYFCQQGNTQPPTFGQGTKLEIKRTVAAPDIQMTQSPSSLSASVGDRVTITCRASEDIYNALAWYQQKPGKAPKLLIYNTDTLHTGVPSRFSGSGSGTDYTLTISSLQPEDFATYFCQHYFHYPRTFGQGTKVEIKR
# B10: DVD3042 (bispecific antibody, IgG1)
# VH: EVQLVQSGAEVKKPGASVKVSCKASGYTFNNYGIIWVRQAPGQGLEWMGWINTYTGKPTYAQKFQGRVTMTTDTSTSTAYMELSSLRSEDTAVYYCARKLFNTVAVTDNAMDYWGQGTTVTVSSASTKGPSVFPLAPEVQLVESGGGLVQPGGSLRLSCAASGFSLTNNNVNWVRQAPGKGLEWVGGVWAGGATDYNSALKSRFTISRDNSKNTAYLQMNSLRAEDTAVYYCARDGGYSSSTLYAMDAWGQGTLVTVSS
# VL: B9 VL
# B11: DVD3041 (bispecific antibody, IgG1)
# VH: B9 VH
# VL: DIQMTQSPSSLSASVGDRVTITCRASQDIENYLNWYQQKPGKAPKLLIYYTSRLQSGVPSRFSGSGSGTDFTLTISSLQPEDFATYFCQQGNTQPPTFGQGTKLEIKRTVAAPSVFIFPPDIQMTQSPSSLSASVGDRVTITCRASEDIYNALAWYQQKPGKAPKLLIYNTDTLHTGVPSRFSGSGSGTDYTLTISSLQPEDFATYFCQHYFHYPRTFGQGTKVEIKR
# Experiments:
# [1] = biological target: T1, Recombinant Human TNF-α/TNFSF1A (human, UniProt P01375 77-233); experiment: Biacore SPR
# T1 construct: vendor reagent is named for Biacore; the neutralization assay says only huTNFα; also called huTNFα
# T1 sequence (P01375 77-233 limits assumed): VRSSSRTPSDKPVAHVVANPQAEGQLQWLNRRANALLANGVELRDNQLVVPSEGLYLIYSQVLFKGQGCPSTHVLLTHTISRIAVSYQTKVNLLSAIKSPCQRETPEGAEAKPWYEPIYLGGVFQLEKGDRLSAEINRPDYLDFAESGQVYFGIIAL
# Outline: (§1)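 Kinetic constants come from global 1:1 model fitting (Rmax local) at 0.8–100 nM antigen. Flow was 50 μl/min with 5 min association and 10 min dissociation. Capture used goat anti-mouse IgG Fcγ on a CM5 chip in HBS-EP+ at 25 °C.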
# [2] = biological target: T1, Recombinant Human TNF-α/TNFSF1A; experiment: cell-based or functional assay
# [3] = biological target: Recombinant Human β-NGF (human, UniProt P01138 122-241); experiment: cell-based or functional assay
# Sequence of Recombinant Human β-NGF (P01138 122-241 limits assumed): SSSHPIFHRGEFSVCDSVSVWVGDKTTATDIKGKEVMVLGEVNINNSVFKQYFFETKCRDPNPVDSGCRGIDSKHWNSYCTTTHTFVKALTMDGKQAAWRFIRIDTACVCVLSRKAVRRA
# [4] = biological target: Recombinant Human IL-13 (human, UniProt P35225 35-146, limits assumed); experiment: Biacore SPR
# Sequence of Recombinant Human IL-13 (P35225 35-146 limits assumed): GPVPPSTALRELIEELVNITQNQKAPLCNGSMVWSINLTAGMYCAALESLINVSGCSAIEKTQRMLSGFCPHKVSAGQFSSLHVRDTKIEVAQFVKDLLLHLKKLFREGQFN
# Outline: as §1
binder,measurement,setting,value
B1,Kd,[1],0.0024 nM
same,koff,[1],1.8e-05 s⁻¹
same,kon,[1],7.5e+06 M⁻¹ s⁻¹
same,huTNFα Neutralization Assay IC50,[2],0.037 nM
B2,C-Terminal VD huTNFα Neutralization Assay IC50,[2],0.072 nM
same,N-Terminal VD NGF Neutralization Assay IC50,[3],0.003 nM
B3,Kd,[4],0.11 nM
same,koff,[4],6.4e-05 s⁻¹
same,kon,[4],570000 M⁻¹ s⁻¹
same,Kd,[1],0.022 nM
same,koff,[1],8.5e-05 s⁻¹
same,kon,[1],3.9e+06 M⁻¹ s⁻¹
same,N-Terminal VD huTNFα Neutralization Assay IC50,[2],0.018 nM
B4,N-Terminal VD huTNFα Neutralization Assay IC50,[2],0.002 nM
same,C-Terminal VD NGF Neutralization Assay IC50,[3],0.093 nM
B5,C-Terminal VD huTNFα Neutralization Assay IC50,[2],0.279 nM
same,N-Terminal VD NGF Neutralization Assay IC50,[3],0.006 nM
B6,C-Terminal VD huTNFα Neutralization Assay IC50,[2],0.05 nM
same,N-Terminal VD NGF Neutralization Assay IC50,[3],0.145 nM
B7,C-Terminal VD huTNFα Neutralization Assay IC50,[2],0.107 nM
same,N-Terminal VD NGF Neutralization Assay IC50,[3],0.003 nM
B8,C-Terminal VD huTNFα Neutralization Assay IC50,[2],0.09 nM
same,N-Terminal VD NGF Neutralization Assay IC50,[3],0.011 nM
B9,N-Terminal VD huTNFα Neutralization Assay IC50,[2],0.012 nM
same,C-Terminal VD NGF Neutralization Assay IC50,[3],0.088 nM
B10,N-Terminal VD huTNFα Neutralization Assay IC50,[2],0.006 nM
same,C-Terminal VD NGF Neutralization Assay IC50,[3],> 10 nM
B11,N-Terminal VD huTNFα Neutralization Assay IC50,[2],0.006 nM
same,C-Terminal VD NGF Neutralization Assay IC50,[3],> 10 nM
